Columns and labels:
Test in all cases: FACS
[1] = biological target: yeast-displayed mutant sBCMA V2 (V3 without N53D) (human, UniProt Q02223 1-54, S16G | H19Y | T36A)
Clone V8 = biological target: Clone V8
Clone V5 = biological target: Clone V5

B1: human APRIL (a proliferation-inducing ligand) (ligand)
chain: AVLTQKQKKQHSVLHLVPINATSKDDSDVTEVMWQPALRRGRGLQAQGYGVRIQDAGVYLLYSQVLFQDVTFTMGQVVSREGQGRQETLFRCIRSMPSHPDRAYNSCYSAGVFHLHQGDILSVIIPRARAKLNLSPHGTFLGFVKL
[1]
  Kd: 0.018 nM
Clone V8
  Kd: 0.054 nM
Clone V5
  Kd: 0.007 nM
